Measured values: patent publication US10772928B2, “Modulation and detection of a neuronal alternative splicing regulatory network for treatment and diagnosis of neurological disorders” (The Governing Council of the University of Toronto, priority 2014, dated 2020)

T1: nSR100 (Mus musculus, UniProt Q8BKA3)
T1 construct: host or cells: mouse N2A cells
T1 sequence (Q8BKA3 1-608): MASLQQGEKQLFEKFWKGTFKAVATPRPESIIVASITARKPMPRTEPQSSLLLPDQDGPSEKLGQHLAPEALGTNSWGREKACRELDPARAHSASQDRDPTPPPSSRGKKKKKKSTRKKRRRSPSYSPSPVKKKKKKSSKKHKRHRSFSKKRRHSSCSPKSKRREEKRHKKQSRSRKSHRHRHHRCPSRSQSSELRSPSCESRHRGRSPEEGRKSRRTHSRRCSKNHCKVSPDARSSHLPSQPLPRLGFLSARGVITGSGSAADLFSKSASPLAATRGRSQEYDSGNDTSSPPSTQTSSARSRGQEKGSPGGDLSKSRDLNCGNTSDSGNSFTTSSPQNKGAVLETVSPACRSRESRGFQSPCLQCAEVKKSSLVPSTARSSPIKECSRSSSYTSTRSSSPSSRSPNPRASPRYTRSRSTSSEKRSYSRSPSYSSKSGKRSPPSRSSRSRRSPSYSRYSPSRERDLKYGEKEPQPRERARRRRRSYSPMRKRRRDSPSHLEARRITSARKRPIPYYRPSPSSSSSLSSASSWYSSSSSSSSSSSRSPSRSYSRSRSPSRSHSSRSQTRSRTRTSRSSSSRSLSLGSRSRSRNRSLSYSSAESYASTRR

B1: Sf3b2 (protein, UniProt Q3UJB0 1-878, looked up)
Splicing factor 3B subunit 2: MAAEHPEPPKGELQLPPPPPPGHYGAWAAQELQARLAEIGAPIQGSREELVERLQTYTRQTGIVLNRPVLRGEDGDKAAPPPMSAQLSGIPMPPPPMGLPPLQPPPPPPPPPPGLGLGFPMAHPPNLGPPPPLRVGEPVALSEEERLKLAQQQAALLMQQEERAKQAAVLMEQERQQEIAKMGTAVPRPPQDMGQLGVRTPLGPRVAAPVGPVVPTPTVLPMGAPVPRPRGPPPPPGDENREMDDPSVGPKIPQALEKILQLKESRQEEMNSQQEEEEMETDTRSSLGQSASETEEDTVSISKKEKNRKRRNRKKKKKPQRVRAASSESSGDREKDSGRSRGSDPPAADVEIEYVTEEPEIYEPNFIFFKRIFEAFKLTDDVKKEKEKEPEKLDKMESSAVPKKKGFEEEHKDSDDDSSDDEQEKKPEAPKLSKKKLRRMNRFTVAELKQLVARPDVVEMHDVTAQDPKLLVHLKATRNSVPVPRHWCFKRKYLQGKRGIEKPPFELPDFIKRTGIQEMREALQEKEEQKTMKSKMREKVRPKMGKIDIDYQKLHDAFFKWQTKPKLTIHGDLYYEGKEFETRLKEKKPGDLSDELRISLGMPVGPNAHKVPPPWLIAMQRYGPPPSYPNLKIPGLNSPIPESCSFGYHAGGWGKPPVDETGKPLYGDVFGTNAAEFQTKTEEEEIDRTPWGELEPSDEESSEEEEEEESDEDKPDETGFITPADSGLITPGGFSSVPAGMETPELIELRKKKIEEAMDGSETPQLFTVLPEKRTATVGGAMMGSTHIYDMSTVMSRKGPAPELQGVEVALAPEELELDPMAMTQKYEEHVREQQAQVEKEDFSDMVAEHAAKQKQKKRKAQPQDSRGGSKKYKEFKF
B2: Bcas2 (protein, UniProt Q9D287 2-225, looked up)
Pre-mRNA-splicing factor SPF27: AGTGLVAGEVVVDALPYFDQGYEAPGVREAAAALVEEETRRYRPTKNYLSYLTAPDYSAFETDIMRNEFERLAARQPIELLSMKRYELPAPSSGQKNDITAWQECVNNSMAQLEHQAVRIENLELMSQHGCNAWKVYNENLVHMIEHAQKELQKLRKHIQDLNWQRKNMQLTAGSKLREMESNWVSLVSKNYEIERTIVQLENEIYQIKQQHGEANKENIRQDF
B3: Luc7l (protein, UniProt Q9CYI4 1-371, looked up)
Putative RNA-binding protein …: MSAQAQMRALLDQLMGTARDGDETRQRVKFTDDRVCKSHLLDCCPHDILAGTRMDLGECTKIHDLALRADYEIASKERDLFFELDAMDHLESFIAECDRRTELAKKRLAETQEEISAEVSAKAEKVHELNEEIGKLLAKAEQLGAEGNVDESQKILMEVEKVRAKKKEAEEEYRNSMPASSFQQQKLRVCEVCSAYLGLHDNDRRLADHFGGKLHLGFIQIREKLDQLRKTVAEKQEKRNQDRLRRREEREREERLGRRSGSRTRDRRRSRSRDRRRRRSRSTSRERRKFSRSRSRDRYRRHRSRSRSHSRGHRRASRDRSTKYKFSRERSLREESWEYGRNERGPTDWRLENSNGKTASRRSEEKEAGEI
B4: Ddx6 (protein, UniProt P54823 1-483, looked up)
Probable ATP-dependent RNA …: MSTARTENPVIMGLSSQNGQLRGPVKASAGPGGGGTQPQPQLNQLKNTSTINNGTPQQAQSMAATIKPGDDWKKTLKLPPKDLRIKTSDVTSTKGNEFEDYCLKRELLMGIFEMGWEKPSPIQEESIPIALSGRDILARAKNGTGKSGAYLIPLLERLDLKKDNIQAMVIVPTRELALQVSQICIQVSKHMGGAKVMATTGGTNLRDDIMRLDDTVHVVIATPGRILDLIKKGVAKVDHVQMIVLDEADKLLSQDFVQIMEDIILTLPKNRQILLYSATFPLSVQKFMNSHLQKPYEINLMEELTLKGVTQYYAYVTERQKVHCLNTLFSRLQINQSIIFCNSSQRVELLAKKISQLGYSCFYIHAKMRQEHRNRVFHDFRNGLCRNLVCTDLFTRGIDIQAVNVVINFDFPKLAETYLHRIGRSGRFGHLGLAINLITYDDRFNLKSIEEQLGTEIKPIPSNIDKSLYVAEYHSEPAEDEKP
B5: Rbmx2 (protein, UniProt Q8R0F5 1-326, looked up)
RNA-binding motif protein, …: MNPLTKVKLINELNEREVQLGVAEKVSWHSEYKHSAWIFVGGLPYELTEGDIICVFSQYGEIVNINLVRDKKTGKSKGFCFLCYEDQRSTVLAVDNFNGIKIKGRTIRVDHVSNYRAPQESEDVDDVTRELQEKGCGVKTPPSSPPEVSEDEDAKLTKKHKKDKKEKKKRKKEKTEGQAQAEQPSCSRSATVKEKKDERASRKHSSKTSERAQKSEHRESKKSHSGSPDGRSSYHARAEDPECKARKEKPKHEHKSASRREAEEKSRERERGRSSGTHSGRHRGHSDGRSHRSRSRSRSPDKSHRHKKYRHSRERDSYHGSDRRHH
B6: Sf3a2 (protein, UniProt Q62203 1-475, looked up)
Splicing factor 3A subunit 2: MDFQHRPGGKTGSGGVASSSESNRDRRERLRQLALETIDINKDPYFMKNHLGSYECKLCLTLHNNEGSYLAHTQGKKHQTNLARRAAKEAKEAPAQPAPEQVKVEVKKFVKIGRPGYKVTKQRDTEMGQQSLLFQIDYPEIAEGIMPRHRFMSAYEQRIEPPDRRWQYLLMAAEPYETIAFKVPSREIDKAEGKFFFLQFHFKMEKPPAPPSLPAGPPGVKRPPPPLMNGLPPRPPLPDALPPPPPGGLPLPPMPPTGPAPSGPPGPPQMPPPAPGVHPPAPVVHPPTSGVHPPAPGVHPPAPVVHPPTSGVHPPAPGVHPPTPGVHPPAPGVHPPAPGVHPPAPGVHPPTPGVHPPAPGVHPPAPGVHPPAPGVHPPPSAGVHPQAPGVHPPAPAVHPQAPGVHPPAPGIHPQAPGVHPQPPPGVHPAAPGVHPQPPGVHPSNPGVHPAPMPPMLRPPLPSDGPGNMPPPPPGN
B7: Wbp11 (protein, UniProt Q923D5 1-641, looked up)
WW domain-binding protein 11: MGRRSTSSTKSGKFMNPTDQARKEARKRELKKNKKQRMMVRAAVLKMKDPKQIIRDMEKLDEMEFNPVQQPQLNEKVLKDKRKKLRETFERILRLYEKENPDIYKELRKLEVEYEQKRAQLSQYFDAVKNAQHVEVESIPLPDMPHAPSNILIQDIPLPGAQPPSILKKTSAYGPPARAVSILPLLGHGVPRLPPGRKPPGPPPGPPPPQVLQMYGRKVGFALDLPPRRRDEDMLYSPELAQRGHDDDMSSTSEDDGYPEDMDQDKHDDSTEDSDTDRSDAESDGDEFGHREDSERDNTEEKKSGLSVRFADMPGKSRKKKKNMKELTPLQAMMLRMAGQEIPEEGREVEEFSEEEDADDSDDSEAEKQSQKQHKDDGHSDSTAAASSQQQAPPQSAPASQIQAPPMPGPPPLGPPPAPPLRPPGPPTGLPPGPPPGAPPFLRPPGMPGIRGPLPRLLPPGPPPGRPPGPPPGPPPGLPPGPPPRGPPPRLPPPAPPGIPPPRPGMMRPPLVPPLGPAPPGLFPPAPLPNPGVLSAPPSLIQRPKADDASAATIEKKATATISAKPQITNPKAEVTRFVPTALRVRRENKGATAVPQRRSEDDSAVPVAKAAPRSGPSVAVSVQTKDDVYEAFMKEMEGLL

What follows are molecules tested against T1, nSR100 (assay: AP-MS nSR100 interaction partners from mouse N2A cells (Table 5)). Details: bait Srrm4.
Format: binding
Source text: By applying affinity purification coupled to mass-spectrometry (AP-MS), several interaction nSR100 partner proteins were detected that provide insight into mechanisms of post-translational regulation of nSR100 levels.

In order of falling “AvgP (average of the SAINT scores)” value:
1. B2  0.97
2. B4  0.97
3. B6  0.97
4. B7  0.97
5. B1  0.96
6. B5  0.96
7. B3  0.95

In order of rising “MaxP (maximal SAINT score)” value:
1. B1  0.96
2. B5  0.98
3. B2  0.99
4. B3  0.99
5. B7  0.99
6. B4  1
7. B6  1

Same assay, conditions: bait Srrm4, 0.1 added to prevent division by 0

In order of falling “FoldChange between the prey Avg spectra of the bait and control purifications” value:
1. B4  30
2. B6  30
3. B2  25
4. B7  25
5. B5  9
6. B3  3.17
7. B1  3.08

Same assay, conditions: bait Srrm4, 2 replicates

In order of falling “AvgSpec (average number of spectra per replicate)” value:
1. B1  20
2. B3  19
3. B5  4.5
4. B4  3
5. B6  3
6. B2  2.5
7. B7  2.5

Same assay, conditions: bait Srrm4, biological replicate 1 (first number of the cell), AP-MS

B1 was tested, and the “Spectra (number of spectra for the prey in the purification of the bait)” value was 20|20.

In order of rising “Spectra (number of spectra for the prey in the purification of the bait)” value:
1. B2  2
2. B4  2
3. B6  2
4. B7  2
5. B5  4
6. B3  18

Same assay, conditions: bait Srrm4, biological replicate 2 (second number of the cell), AP-MS

With B1 the “Spectra (number of spectra for the prey in the purification of the bait)” value was 20|20.

In order of rising “Spectra (number of spectra for the prey in the purification of the bait)” value:
1. B2  3
2. B7  3
3. B4  4
4. B6  4
5. B5  5
6. B3  20

Same assay, conditions: bait Srrm4, sum of spectra over 2 replicates

In order of falling SpecSum:
1. B1  40
2. B3  38
3. B5  9
4. B4  6
5. B6  6
6. B2  5
7. B7  5
